Patent US20220218790A1 (UNIVERSITY OF SHEFFIELD, published 2022)

Biological target: T1, PTH receptor of the PTH responsive cell line UMR-106 (rat osteoblastic like cell line) (rat, UniProt P25961 27-591)
T1 sequence (looked up): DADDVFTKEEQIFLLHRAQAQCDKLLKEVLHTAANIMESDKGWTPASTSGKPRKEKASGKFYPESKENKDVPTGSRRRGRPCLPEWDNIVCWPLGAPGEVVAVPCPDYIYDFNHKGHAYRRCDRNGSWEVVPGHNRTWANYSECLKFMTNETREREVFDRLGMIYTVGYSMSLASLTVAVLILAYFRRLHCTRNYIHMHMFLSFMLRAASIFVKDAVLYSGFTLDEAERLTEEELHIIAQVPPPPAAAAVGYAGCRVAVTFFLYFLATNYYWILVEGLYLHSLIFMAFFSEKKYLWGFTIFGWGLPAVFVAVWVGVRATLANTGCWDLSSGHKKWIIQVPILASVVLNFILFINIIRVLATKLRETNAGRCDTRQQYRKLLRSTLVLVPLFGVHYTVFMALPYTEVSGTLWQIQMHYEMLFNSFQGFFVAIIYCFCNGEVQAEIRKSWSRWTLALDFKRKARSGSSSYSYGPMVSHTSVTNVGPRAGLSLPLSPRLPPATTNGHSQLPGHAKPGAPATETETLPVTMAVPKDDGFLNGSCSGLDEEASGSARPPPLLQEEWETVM
Assay: cell-based or functional assay

B1: 14A2c = PTHss-pp-PTH (1-34)-(g4s)4-PTHrExt-(g4s)4-GHbp (other)
chain: SVSEIQLMHNLGKHLNSMERVEWLRKKLQDVHNFGGGGSGGGGSGGGGSGGGGSDDVMTKEEQIFLLHRAQAQCEKRLKEVLQRPASIMESDKGWTSASTSGKPRKDKASGKLYPESEEDKEAPTGSRYRGRPCLPEWDHILCWPLGAPGEVVAVPCPDYIYDFNHKGHAYRRCDRNGSWELVPGHNRTWANYSECVKFLTNETREREVFDRLGGGGSGGGGSGGGGSGGGGSFSGSEATAAILSRAPWSLQSVNPGLKTNSSKEPKFTKCRSPERETFSCHWTDEVHHGTKNLGPIQLFYTRRNTQEWTQEWKECPDYVSAGENSCYFNSSFTSIAIPYCIKLTSNGGTVDEKCFSVDEIVQPDPPIALNWTLLNVSLTGIHADIQVRWEAPRNADIQKGWMVLEYELQYKEVNETKWKMMDPILTTSVPVYSLKVDKEYEVRVRSKQRNSGNYGEFSEVLYVTLPQMSQ
Dual Luciferase Reporter Assay, fold increase of 14A2c over 14A3b at 100 nM: ~1.3 fold | Dual Luciferase Reporter Assay, fold increase of 14A2c over 14A3b at 500 nM: ~1.6 fold | EC50, Dual Luciferase Reporter Assay, UMR-106 cells: 579 nM | fold increase in cAMP levels over 14A3b, UMR-106 cells, 500 nM: 11 fold

B2: 14A3b = GHss-PTH (1-34)-(g4s)4-PTHrExt-(g4s)4-GHbp (other)
chain: SVSEIQLMHNLGKHLNSMERVEWLRKKLQDVHNFGGGGSGGGGSGGGGSGGGGSDDVMTKEEQIFLLHRAQAQCEKRLKEVLQRPASIMESDKGWTSASTSGKPRKDKASGKLYPESEEDKEAPTGSRYRGRPCLPEWDHILCWPLGAPGEVVAVPCPDYIYDFNHKGHAYRRCDRNGSWELVPGHNRTWANYSECVKFLTNETREREVFDRLGGGGSGGGGSGGGGSGGGGSFSGSEATAAILSRAPWSLQSVNPGLKTNSSKEPKFTKCRSPERETFSCHWTDEVHHGTKNLGPIQLFYTRRNTQEWTQEWKECPDYVSAGENSCYFNSSFTSIAIPYCIKLTSNGGTVDEKCFSVDEIVQPDPPIALNWTLLNVSLTGIHADIQVRWEAPRNADIQKGWMVLEYELQYKEVNETKWKMMDPILTTSVPVYSLKVDKEYEVRVRSKQRNSGNYGEFSEVLYVTLPQMSQ
EC50, Dual Luciferase Reporter Assay, UMR-106 cells: 896 nM

B3: 14A7 = PTHss-pp-PTH(1-34)-(g4s)4-GHbp (other)
chain: SVSEIQLMHNLGKHLNSMERVEWLRKKLQDVHNFGGGGSGGGGSGGGGSGGGGSFSGSEATAAILSRAPWSLQSVNPGLKTNSSKEPKFTKCRSPERETFSCHWTDEVHHGTKNLGPIQLFYTRRNTQEWTQEWKECPDYVSAGENSCYFNSSFTSIAIPYCIKLTSNGGTVDEKCFSVDEIVQPDPPIALNWTLLNVSLTGIHADIQVRWEAPRNADIQKGWMVLEYELQYKEVNETKWKMMDPILTTSVPVYSLKVDKEYEVRVRSKQRNSGNYGEFSEVLYVTLPQMSQ
EC50, Dual Luciferase Reporter Assay, UMR-106 cells: 153 nM | fold by which PTH is more potent than this fusion (EC50, Dual Luciferase Reporter Assay): 4.7 fold
